US6673354B2, “Compositions and methods for treating papillomavirus-infected cells” (priority 1998, dated 2004)
Where no end group is shown, it is not given here.

Experiments:
[1] = test system: in vitro HPV16 DNA replication; assay: In vitro replication of HPV16 DNA (293 cell extract, EE-E1, HPV16 E2); assay type: biochemical; settings: 40 ng EE-E1 and 6 ng HPV16 E2, FIG. 7
Protocol: In vitro replication reactions. In vitro replication reactions were essentially as described by Kuo et al. (18) in 25 μl reactions at 37° C. for indicated times. Standard reactions were for 2 hours, and were terminated by addition of 200 μl stop solution (20 mM Tris-HCl pH 7.5, 10 mM EDTA, 0.1% SDS, and 20 μg/ml RNase A). After incubation at 37° C. for 15 minutes, proteinase K was added (200 μg/ml) and incubation was continued 30 minutes. Samples were extracted with 250 μl phenol/chloroform/isoamyl alcohol (25:24:1), ethanol precipitated, washed with 70% ethanol, dried, resuspended in 20-30μl TE, and analyzed on a 0.8% agarose gel (TAE). The agarose gel was dried onto Hybond N+ membrane (Amersham), and replicated DNA was visualized by autoradiography. Bands were quantitated by Phosphorimager analysis. Replication templates were pKS7838-7905 (nt7838-7905/1-130) containing the HPV16 replication origin, and pUC7874-99 containing the HPV11 origin of replication (nt7874-7933/1-99). pUC7874-99 was a generously provided by Dr. Louise Chow.
We sought to establish a system for the study of HPV16 DNA replication in vitro, and to determine whether specific interaction between HPV16 E1 and E2 was required for HPV16 DNA replication in this system. […] As has been documented for other papillomavirus E1 proteins, some replication was observed using relatively large amounts of E1 in the absence of E2 (lanes 2 through 7) (6, 16, 22, 33, 40, 48). […] Replication in this assay is ori-dependent, since the small amount of replication of the pKS plasmid lacking the HPV16 origin detected at high concentrations of EE-E1 (FIG. 3B, lanes 1-6) was not stimulated by E2 (FIG. 1B, lanes 7-12).
Since the E2N-WP23 and E2N-WP 15 peptides could inhibit interaction between […] E1 and E2, their ability to inhibit in vitro HPV16 DNA replication was also tested (FIGS. 7A and 7B).

[2] = target: T1, interaction between HPV16 E1 and E2 (Human papillomavirus type 16, UniProt P03114); assay: In vitro HPV E1-E2 binding assay (co-immunoprecipitation / Western blot), HPV16 E1 and HPV16 E2; settings: increasing peptide concentrations, FIG. 6A
T1 construct: made in house; host or cells: Hi-Five insect cells infected with recombinant baculovirus (pVL1392); nuclear extracts
T1 sequence (P03114 whole entry, looked up): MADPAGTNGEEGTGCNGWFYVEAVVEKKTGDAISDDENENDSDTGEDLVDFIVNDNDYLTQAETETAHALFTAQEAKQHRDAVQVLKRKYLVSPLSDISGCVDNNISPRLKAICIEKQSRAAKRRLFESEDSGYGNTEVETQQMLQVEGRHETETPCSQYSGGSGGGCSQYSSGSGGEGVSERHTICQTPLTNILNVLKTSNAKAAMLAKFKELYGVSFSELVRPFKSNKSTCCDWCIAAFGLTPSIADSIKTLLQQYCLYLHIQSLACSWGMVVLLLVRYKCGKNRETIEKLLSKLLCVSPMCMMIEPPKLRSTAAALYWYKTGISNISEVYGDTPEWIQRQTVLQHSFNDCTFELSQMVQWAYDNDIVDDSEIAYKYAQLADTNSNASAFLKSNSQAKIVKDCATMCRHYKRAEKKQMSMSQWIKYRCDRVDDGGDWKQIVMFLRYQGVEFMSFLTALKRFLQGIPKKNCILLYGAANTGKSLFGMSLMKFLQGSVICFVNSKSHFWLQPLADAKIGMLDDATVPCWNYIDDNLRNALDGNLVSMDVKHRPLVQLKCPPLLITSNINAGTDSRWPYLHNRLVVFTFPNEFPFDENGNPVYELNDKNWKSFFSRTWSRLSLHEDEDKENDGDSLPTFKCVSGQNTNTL
Protocol: (§1) In vitro HPV E1-E2 binding assay. 300-500 ng protein from HPV16 or HPV11 EE-E1 expressing recombinant baculovirus infected cell nuclear extracts and 80-120 ng from HPV E2 baculovirus infected cell nuclear extracts were incubated in 500 μl NET-gel buffer (50 mM Tris-HCl pH7.5, 150 mM NaCl, 0.1% NP-40, 1 mM EDTA, 0.25% gelatin) at 4° C. for one hour. 1-2 μg anti-EE monoclonal antibody was added and incubated with shaking at 4° C. for one hour. Immune complexes were precipitated with protein-G agarose beads and washed twice for 30 minutes with ice cold NET-gel buffer. Precipitated proteins were detected by Western blot using appropriate primary antibodies and anti-rabbit IgG HRP or anti-mouse IgG HRP (Amersham). Membranes were blocked for one hour in TNET (10 mM Tris 7.5, 2.5 mM EDTA, 50 mM NaCl, 0.1% Tween-20) containing 4% (w/v) dry milk. Washes and antibody reactions were carried out in TNET, and proteins were visualized by chemiluminescence (Reneaissance ECL, NEN) and autoradiography. Bands were quantitated using the NIH image program.
(§2) Therefore, we reasoned that a peptide encompassing this domain of HPV16 E2 might inhibit interaction between HPV16 E1 and E2, thereby inhibiting HPV16 DNA replication (FIG. 5). In order to test this possibility, HPV16 E2 and epitope tagged full length HPV16 E1 (EE16-E1) proteins were expressed separately using baculovirus vectors. EE-E1 and associated E2 proteins were immunoprecipitated using an anti-EE epitope monoclonal antibody. Precipitated E2 was detected by Western blot using polyclonal antiserum raised to the DNA binding domain of HPV16 E2 (35). As shown in lane 2 of FIG. 6A, E2 co-immunoprecipitated with EE16-E1, but was not precipitated by the EE epitope antibody in the absence of EE16-E1 (lane 1). Peptides encompassing HPV16 E2 amino acids 29-51 (E2N-WP23) or residues 33-47 (E2N-WP15) of HPV16 E2 were then tested for inhibition of E1-E2 interaction. These peptide sequences were derived from the sequence of HPV16 E2, and were based on an alignment of amino terminal residues that are conserved among the papillomavirus E2 proteins (FIG. 5). […] Both the HPV16 E2 protein itself and the E2 derived peptides act specifically in these assays, since the E39A replication defective HPV16 E2 mutant bound only slightly to EE16-E1 (lanes 14). […] These peptides are named E2N-MP23 and E2N-MP15, respectively (see FIG. 5). […] We have previously shown that a domain spanning amino acids 421-647 of the HPV16 E1 carboxy terminus is necessary and sufficient for E2 interaction (45).

[3] = target: T2, HPV-16 E1-E2 interaction (Human papillomavirus type 16, UniProt P03114); assay: In vitro HPV E1-E2 competition binding assay (HPV-16 EE-E1C and HPV-16 E2); settings: 10 μM, 20 μM, and 40 μM peptide, FIG. 14
T2 construct: The carboxy terminus of HPV16-E1, from amino acid 424 to 649, is the minimal domain; made in house; host or cells: E2: nuclear extract of baculovirus-infected Hi-Five cells
T2 sequence (P03114 whole entry, looked up): T1 sequence (P03114 whole entry, looked up)
Protocol: Use of EE-EIC. The carboxy terminus of HPV16-E1, from amino acid 424 to 649, is the minimal domain necessary for interaction with E2 (Yasugi et al. 1997). An epitope tagged form of this domain (EE-EIC) was used in the E1-E2 interaction assays presented here.
In vitro HPV EI-E2 competition binding assay. HPV-16 EE-EIC (240 ng) in 500 1 NET gel buffer (50 mM Tris-HCI [pH 7.5 ], 150 mM NaCl, 0.1% NP-40, 1 mM EDTA, 0.25% gelatin) were pre-incubated with 0 μM, 10 μM, 20 μM, or 40 μM peptide for 10 minutes on ice. The final concentration of DMSO, the peptide solvent, was kept constant in all samples. Nuclear extract containing HPV-16 E2 was then added, and the mixture was incubated with shaking at 4° C. for 1 hour. Anti-EE monoclonal antibody (1 mg/ml) (BAbCo) was added, and the mixture was incubated with shaking for 30 minutes. Immune complexes were precipitated with protein G-agarose beads for an additional 30 minutes at 4° C. The beads were washed with 500 l ice-cold NET-gel buffer three times.

[4] = target: T3, interaction between HPV16 E1 and E2 (Human papillomavirus type 16, UniProt P03114); assay: In vitro HPV E1-E2 binding assay (co-immunoprecipitation / Western blot), HPV16 E1 and HPV16 E2
T3 construct: made in house; host or cells: Hi-Five insect cells infected with recombinant baculovirus (pVL1392); nuclear extracts
Protocol: as §1, §2

[5] = target: T4, EE-EIC (epitope tagged carboxy terminal domain of HPV16 E1) (human papillomavirus type 16, UniProt P03114 424-649); assay: in vitro E1-E2 competition binding assay with EE-EIC, 10-40 µM peptide, FIG. 14
T4 construct: range 424-649; limits uncertain; also called HPV-16 EE-EIC; EE-E1C
T4 sequence: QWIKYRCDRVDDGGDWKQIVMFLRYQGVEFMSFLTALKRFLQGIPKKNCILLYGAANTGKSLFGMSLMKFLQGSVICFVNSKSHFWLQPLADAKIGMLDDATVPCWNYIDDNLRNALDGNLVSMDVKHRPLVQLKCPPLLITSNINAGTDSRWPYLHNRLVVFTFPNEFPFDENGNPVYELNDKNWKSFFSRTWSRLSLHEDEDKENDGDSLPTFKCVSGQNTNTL

[6] = target: T5, epitope tagged full length HPV16 E1 (EE16-E1) (human papillomavirus type 16, UniProt P03114 1-649); assay: inhibition of HPV16 E1-E2 co-immunoprecipitation by peptide; competitor HPV16 E2
T5 construct: range 1-649; also called EE-E1; HPV16 EE-E1
T5 sequence: T1 sequence (P03114 whole entry, looked up)

[7] = target: T6, HPV11 EE-E1 (epitope tagged HPV11 E1) (human papillomavirus type 11, UniProt P04014 1-649); assay: co-immunoprecipitation with anti-EE antibody, Western blot for E2
T6 sequence: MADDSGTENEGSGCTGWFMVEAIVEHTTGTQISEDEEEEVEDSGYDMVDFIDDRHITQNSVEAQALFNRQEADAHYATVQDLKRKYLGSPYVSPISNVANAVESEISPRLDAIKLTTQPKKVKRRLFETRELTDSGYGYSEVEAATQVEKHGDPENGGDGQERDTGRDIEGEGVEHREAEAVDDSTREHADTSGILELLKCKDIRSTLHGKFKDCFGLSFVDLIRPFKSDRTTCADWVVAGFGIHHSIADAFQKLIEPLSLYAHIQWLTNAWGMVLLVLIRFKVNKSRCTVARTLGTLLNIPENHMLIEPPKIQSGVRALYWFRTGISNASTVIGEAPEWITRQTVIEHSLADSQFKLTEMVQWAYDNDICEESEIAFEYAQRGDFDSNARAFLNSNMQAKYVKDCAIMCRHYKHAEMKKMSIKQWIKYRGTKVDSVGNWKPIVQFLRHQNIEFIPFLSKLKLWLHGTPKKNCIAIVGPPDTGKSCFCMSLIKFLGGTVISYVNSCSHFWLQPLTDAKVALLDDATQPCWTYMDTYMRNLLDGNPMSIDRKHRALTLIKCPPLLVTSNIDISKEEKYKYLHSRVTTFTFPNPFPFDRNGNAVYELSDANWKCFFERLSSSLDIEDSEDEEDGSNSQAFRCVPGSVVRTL

## E2N-MP23: 23-mer peptide of HPV16 E2 aa 29-51 containing alanine at the position analogous to E39 (HIDYWKHMRLACAIYYKAREMGF; UniProt P03120 29-51, looked up, variant E39A)
[1]
  inhibition of in vitro HPV16 DNA replication: wild type peptides inhibited replication much more effectively than the respective E39A substituted analog
[2]
  inhibition of HPV16 E1-E2 interaction: did not inhibit E1-E2 interaction at concentrations at which the wild type peptide could do so

## ERQIKIWFQNRRMKWKKGGWKHMRLECAIYYKAR [Ant-WP]
[3]
  inhibition of HPV-16 E1-E2 interaction (E1-E2 complex formation): comparable to that of wild-type peptide

## GRKKRRQRRRPPQCGGWKHMRLECAIYYKAR (cysteine pairing not given here) [Tat-WP]
[3]
  inhibition of HPV-16 E1-E2 interaction (E1-E2 complex formation): not inhibited

## HIDYWKHMRLECAIYYKAREMGF [E2N-WP23]
[1]
  inhibition of in vitro HPV16 DNA replication: could effectively inhibit in vitro replication
[4]; increasing peptide concentrations, FIG. 6A
  inhibition of HPV16 E1-E2 interaction: inhibitory effects
[4]; inhibition plotted as a function of substrate concentration (data not shown)
  mode of inhibition of E1-E2 interaction: competitive inhibition

## ERQIKIWFQNRRMKWKKGGWKHMRLECAIYYKAR (also called Antennapedia fusion peptide) [Ant-WP (Drosophila Antennapedia aa 42-58, Gly-Gly spacer, WP15)]
[5]
  binding result: binds

## HIDYWKHMRLECAIYYKAREMGF (also called 23-mer) [E2N-WP23 (peptide of HPV16 E2 amino acids 29-51)]
[6]
  IC50: 5 µM

B1: HPV16 E2 E39A mutant (other)
chain: METLCQRLNVCQDKILTHYENDSTDLRDHIDYWKHMRLACAIYYKAREMGFKHINHQVVPTLAVSKNKALQAIELQLTLETIYNSQYSNEKWTLQDVSLEVYLTAPTGCIKKHGYTVEVQFDGDICNTMHYTNWTHIYICEEASVTVVEGQVDYYGLYYVHEGIRTYFVQFKDDAEKYSKNKVWEVHAGGQVILCPTSVFSSNEVSSPEIIRQHLANHPAATHTKAVALGTEETQTTIQRPRSEPDTGNPCHTTKLLHRDSVDSAPILTAFNSSHKGRINCNSNTTPIVHLKGDANTLKCLRYRFKKHCTLYTAVSSTWHWTGHNVKHKSAIVTLTYDSEWQRDQFLSQVKIPKTITVSTGFMSI
notes: also called E39A replication defective HPV16 E2 mutant
[7]
  binding result: no binding

## WKHMRLECAIYYKAR (also called 15-mer; wild-type peptide) [E2N-WP15 (peptide of HPV16 E2 residues 33-47)]
[6]
  IC50: 7.5 µM
